Measurements from the Human Domainome abundance scans (Beltran et al. 2025).

B1: Connector enhancer of kinase suppressor of ras 2, residues 9 to 71; numbered along this chain, Q8WXI2 (parent)
chain: SKWSPSQVVDWMKGLDDCLQQYIKNFEREKISGDQLLRITHQELEDLGVSRIGHQELILEAVD

Variants of: B1
Assay: abundance fitness (aPCA) (normalised: wild type 0, dead -1); higher = more abundant; growth selection in yeast, the domain comes from the species named
Details: Homo sapiens

Abundance fitness: each site, then its substitutions
G33: F -0.198 | Q -0.559 | W -0.216 | L -0.423 | N -0.947 | D -0.906 | C -0.833 | R -0.631 | P -0.84 | S -0.668 | V -0.417 | T -0.645 | I -0.387 | E -0.855 | K -0.462 | H -0.669 | Y -0.257 | M -0.236 | A -0.745
R28: A -0.052 | F -0.453 | Y -0.28 | T -0.058 | I -0.099 | V -0.159 | S -0.056 | L -0.15 | D -0.043 | N -0.067 | G -0.262 | E -0.1 | K -0.063 | W -0.638 | M -0.094
L37: R -0.145 | T -0.155 | C -0.108 | N -0.154 | V -0.078 | M 0.012 | D -0.254 | S -0.072 | Y -0.28 | W -0.349 | A -0.073 | H -0.158 | P -0.407 | G -0.168 | K -0.132 | E -0.193 | F -0.239 | Q -0.151
I31: R -0.873 | V -0.053 | M -0.361 | K -0.886 | Q -0.87 | C -0.99 | W -0.74 | N -0.732 | F -0.573 | P -0.744 | H -0.71 | L -0.26 | Y -0.948 | A -0.914 | D -0.931 | E -0.827
L44: G -0.804 | A -0.814 | E -0.82 | F -0.722 | D -0.657
K30: S -0.087 | D -0.225 | A -0.069 | Q -0.036 | N -0.075 | E -0.105 | M -0.113 | T -0.419 | F -0.324 | Y -0.391 | C -0.097 | G -0.048 | L -0.225 | W -0.572 | V -0.519 | H -0.04
D34: Y -0.12 | G -0.109 | M -0.108 | N -0.087 | H -0.168 | Q -0.031 | P -0.105 | E 0.055 | S -0.06 | I -0.213 | W -0.142 | A 0.037 | F -0.281 | V -0.159 | K -0.056 | R -0.075 | T -0.118 | L -0.128
E29: Q -0.005 | L -0.179 | F -0.148 | K 0.02 | Y -0.102 | R -0.025 | G -0.04 | H 0.003 | N -0.143 | W -0.215 | M -0.054 | S -0.043 | T -0.139
T40: M -0.907 | G -0.12 | W -0.957 | P -0.784 | H -0.6 | A -0.499 | Q -0.437 | K -0.186 | L -1.07 | D -0.327 | I -0.893 | F -1.21 | C -0.426 | E -0.548 | V -0.877 | N -0.201
Q35: W -0.523 | N -0.119 | M -0.152 | K -0.054 | L -0.392 | S -0.291 | E -0.172 | F -0.33 | Y -0.39 | R 0.033 | C -0.328 | D -0.158 | P -0.903 | V -0.19 | A -0.088 | G -0.485
E43: T -0.151 | C -0.332 | Y -0.472 | P -0.987 | M -0.165 | N -0.121 | A -0.143 | I -0.46 | L -0.41 | S -0.137 | D 0.011 | R 0.006 | V -0.257 | F -0.455 | G -0.131 | H -0.179 | K -0.003 | Q 0.03 | W -0.498
H41: G -0.077 | K 0.029 | N -0.097 | E -0.076 | D -0.229 | C -0.157 | I -0.184 | Q -0.037 | V -0.06 | P -0.002 | T -0.031 | Y -0.075 | S -0.007 | L -0.234 | M -0.125
L36: M -0.334 | Y -1.01 | C -0.961 | V -0.713 | G -0.845 | D -0.847 | R -0.82 | A -0.958 | N -0.854 | E -0.769 | F -0.715 | P -0.928 | H -0.971 | S -0.846 | Q -0.898 | W -1.04 | K -0.775 | I -0.325 | T -0.88
I23: M -0.34 | Q -0.378 | Y -0.447 | L -0.163 | P -0.673 | S -0.247 | V -0.008 | H -0.393 | N -0.475 | K -0.361 | W -0.313 | R -0.18
R38: I -0.543 | C -0.189 | P -0.681 | Y -0.446 | K -0.002 | L -0.377 | H -0.061 | A -0.031 | M -0.307 | F -0.416 | G -0.106 | N -0.098 | W -0.549 | E -0.302 | Q -0.134 | D -0.163
N25: C -0.066 | A -0.007 | Y -0.036 | M -0.014 | P -0.307 | G -0.139 | E -0.168 | L -0.089 | H -0.055 | K -0.258 | F -0.078 | S -0.05 | W -0.443 | I -0.088 | D -0.08 | Q -0.133
I39: K -0.576 | C -0.416 | V -0.22 | H -0.65 | F -0.254 | R -0.717 | D -0.569 | L 0.01 | N -0.67 | W -0.737 | S -0.537 | T -0.455 | A -0.424 | Q -0.653 | M 0.009 | G -0.699 | E -0.607 | Y -0.632
E27: C -0.406 | Y -0.316 | P -0.703 | M -0.205 | S -0.258 | N -0.535 | F -0.47 | V -0.261 | H -0.376 | A -0.075 | Q -0.101 | W -0.311 | R -0.173 | L -0.207 | T -0.197 | G -0.514 | I -0.436 | D -0.248
Q42: D -0.348 | V -0.258 | T -0.118 | W -0.767 | F -0.618 | I -0.558 | N -0.228 | L -0.378 | K 0.002 | R -0.03 | E -0.119 | A -0.083 | G -0.193 | M -0.319 | P -0.254 | Y -0.848 | S -0.128 | C -0.395
S32: H -0.361 | C -0.029 | M -0.394 | F -0.493 | P -0.624 | G -0.074 | T 0.022 | L -0.706 | R -0.142 | W -0.322 | N 0.024 | I -0.589 | Y -0.264 | E -0.341 | V -0.475 | A -0.077
F26: Q -0.772 | R -0.867 | K -0.852 | G -0.727 | S -0.779 | W -0.785 | H -0.929 | V -0.485 | I -0.356 | A -0.824 | N -0.893 | T -0.774 | M -0.709 | P -0.592 | Y -0.908
